B1: MBP-Δ325 (domain or fragment, human, UniProt O75475-1 325-530, looked up)
chain: EQQNKDEGKKPEVKKVEKKRETSMDSRLQRIHAEIKNSLKIDNLDVNRCIEALDELASLQVTMQQAQKHTEMITTLKKIRRFKVSQVIMEKSTMLYNKFKNMFLVGEGDSVITQVLNKSLAEQRQHEEANKTKDQGKKGPNKKLEKEQTGSKTLNGGSDAQDGNQPQHNGESNEDSKDNHEASTKKKPSSEERETEISLKDSTLDN
notes: GenBank NM_033222; also called Δ325-MBP; Δ325 fragment; source: E. coli BL21 (plasmid pMBP-Δ325), purified
B2: MBP-IBD (domain or fragment, human, UniProt O75475-1 347-429, looked up)
chain: SMDSRLQRIHAEIKNSLKIDNLDVNRCIEALDELASLQVTMQQAQKHTEMITTLKKIRRFKVSQVIMEKSTMLYNKFKNMFLV
notes: the introduction gives amino acids 347 to 429 for the IBD; GenBank NM_033222; The limits are those printed for the minimal IBD in the introduction; also called IBD-MBP; source: E. coli BL21 (plasmid pMBP-IBD), purified
B3: C-terminal His6-tagged HIV-1 integrase, wild type (enzyme, HIV-1 (NL4-3), UniProt P12497 1148-1435, looked up)
chain: FLDGIDKAQEEHEKYHSNWRAMASDFNLPPVVAKEIVASCDKCQLKGEAMHGQVDCSPGIWQLDCTHLEGKVILVAVHVASGYIEAEVIPAETGQETAYFLLKLAGRWPVKTVHTDNGSNFTSTTVKAACWWAGIKQEFGIPYNPQSQGVIESMNKELKKIIGQVRDQAEHLKTAVQMAVFIHNFKRKGGIGGYSAGERIVDIIATDIQTKELQKQITKIQNFRVYYRDSRDPVWKGPAKLLWKGEGAVVIQDNSDIKVVPRRKAKIIRDYGKQMAGDDCVASRQDED
notes: HIV-1 NL4-3 integrase (IN), the cut product of the Gag-Pol polyprotein; GenBank U26942, base pairs 3608 through 4471; the results call it IN^s (IN from a synthetic gene); also called IN-WT; WT IN^s; not shown: His6, C-terminal, kept

The target of assay [1] is C-terminal His6-tagged HIV-1 integrase A128T/E170G (HIV-1 (NL4-3)). Put plainly: AlphaScreen or HTRF; 300 nM C-terminal His6-tagged IN with increasing MBP-Δ325 (30 to 300 nM); Ni-chelate acceptor beads, anti-MBP donor beads; 25 mM Tris/HCl pH 7.3, 150 mM NaCl, 1 mM MgCl2, 0.01% Tween-20, 0.1% BSA; room temperature. (Alpha assays give light when donor and acceptor beads are brought close together.)

Assay [2] concerns the target C-terminal His6-tagged HIV-1 integrase E170G (HIV-1 (NL4-3)). The description is as above.
In assay [3] the target is C-terminal His6-tagged HIV-1 integrase A128T (HIV-1 (NL4-3)). The assay is described as above.
Assay [4] addresses B3. Description: AlphaScreen or HTRF; 30 nM C-terminal His6-tagged IN with increasing MBP-Δ325 (30 to 300 nM); Ni-chelate acceptor beads, anti-MBP donor beads; 25 mM Tris/HCl pH 7.3, 150 mM NaCl, 1 mM MgCl2, 0.01% Tween-20, 0.1% BSA; room temperature. To be noted: both partners purified.
For assay [5], the target named is B3. Put plainly: pull-down; 6 μg C-terminal His6-tagged IN on Ni-NTA-agarose; 6 μg LEDGF/p75, MBP-IBD or MBP-Δ325 added; 25 mM Tris-HCl pH 7.4, 0.1% Nonidet P-40, 20 mM imidazole, 150 mM NaCl, 1 mM MgCl2, BSA; 4 h at 4 °C; SDS-PAGE, Coomassie Blue. To be noted: both partners purified.
A further assay has as its target T1, Nontagged LEDGF/p75 (human, UniProt O75475-1 1-530).
T1 construct: LEDGF/p75, human, 530 amino acids, GenBank NM_033222; also called recombinant LEDGF/p75; full-length LEDGF/p75; source: E. coli BL21(DE3) (plasmid pCPnat75), purified
Described as above. To be noted: both partners purified.

The source of these data is publication PMC1839165, “Virus Evolution Reveals an Exclusive Role for LEDGF/p75 in Chromosomal Tethering of HIV” (PLoS Pathogens, 2007).

In the case of “MBP-Δ325 (from UniProt O75475-1 325-530) (domain or fragment)”, the fold reduction of the AlphaScreen signal compared with IN-WT (300 nM IN, 300 nM MBP-Δ325) in assay [1] came out at 8 fold. Also, the fold reduction of the AlphaScreen signal compared with IN-WT (300 nM IN) in assay [2] is 3 fold; in assay [3], 2 fold.

For B1, in assay [4], the binding result was “binds”.

As to B2, the binding result in assay [5] was “binds”.

B3: in the assay with Nontagged LEDGF/p75, the binding result was “binds”.
